Substrate in this data set: O=[N+]([O-])c1ccc(O[C@@H]2O[C@H](CO)[C@@H](O)[C@H](O)[C@H]2O)cc1
The experiment in a line: purified protein. The following applies: free enzyme, 100 mM citrate phosphate pH 6.5, 50 °C, pNPG 0.05–25 mM.

B1: β-Glucosidase from Thermotoga maritima (bgl) (Thermotoga maritima MSB8) (protein)
chain: MNVKKFPEGFLWGVATASYQIEGSPLADGAGMSIWHTFSHTPGNVKNGDTGDVACDHYNRWKEDIEIIEKLGVKAYRFSISWPRILPEGTGRVNQKGLDFYNRIIDTLLEKGITPFVTIYHWDLPFALQLKGGWANREIADWFAEYSRVLFENFGDRVKNWITLNEPWVVAIVGHLYGVHAPGMRDIYVAFRAVHNLLRAHARAVKVFRETVKDGKIGIVFNNGYFEPASEKEEDIRAVRFMHQFNNYPLFLNPIYRGDYPELVLEFAREYLPENYKDDMSEIQEKIDFVGLNYYSGHLVKFDPDAPAKVSFVERDLPKTAMGWEIVPEGIYWILKKVKEEYNPPEVYITENGAAFDDVVSEDGRVHDQNRIDYLKAHIGQAWKAIQEGVPLKGYFVWSLLDNFEWAEGYSKRFGIVYVDYSTQKRIVKDSGYWYSNVVKNNGLED
The Km is the substrate concentration at which the rate is half of its maximum. By Vmax is commonly meant the rate approached at saturating substrate. In the case of B1, the Km was 0.22 ± 0.08 mM and the maximal velocity (Vmax) came to 7.27 µM/min.

The record behind these values is paper PMC9824680.
